Kd data for one substance are collected here from paper PMC6467748.

The test has as its target mouse-derived mAb 735 (mo735) (mouse). As to the kind of experiment: SPR.

The term Kd denotes the constant that tells how readily two partners part at equilibrium. Low values mean tighter binding, high ones weaker binding. In turn, “chicken brain-derived polysialylated neural cell adhesion molecule (NCAM) (from UniProt P13590 20-711) (natural protein)” showed a Kd of 10.2 nM.
